Laboratory results published in US20240368243A1.

Columns and labels:
[1] = target: … (SEQ ID NO: 1)-HLA-A*02 complex presented on antigen positive cancer cells (human); assay: cell-based or functional assay
[2] = target: … (SEQ ID NO: 1)-HLA-A*02 complex (soluble, biotinylated) (human); assay: SPR (BIAcore) or BLI (Octet) per Example 3, biotinylated pHLA immobilised, 25 C

Row | Binder | EC50 (mel624), IFN-γ ELISPOT, activation of redirected T cells [1] [pM] | Kd [2] [nM] | t1/2 [2] [h]
1 | ImmTAC molecule comprising a79 (SEQ ID NO: 7) and b64 (SEQ ID NO: 12) (TCR, part only; not given: anti-CD3 scFv, linker, TCR constants, part only) TCR alpha, part: GDAKTTQPNSMESNEEEPVHLPCNHSTISGTDYIHWYRQLPSQGPEYVIHGLTSNVNNRMASLAIAEDRKSSTLILHRATLRDAAVYYCILILGHSRLGNYIATFGKGTKLSVIP TCR beta, part: DGGITQSPKYLFRKEGQNVTLSCEQNLNHDAMYWYRQDPGQGLRLIYYSQIMNDEQKGDIAEGYSVSREKKESFPLTVTSAQKNPTAFYLCASSWWTGGSAPIRFGPGTRLTVT | 27.5 | 0.138 | 6.38
2 | ImmTAC molecule comprising a79 (SEQ ID NO: 7) and b75 (SEQ ID NO: 20) (TCR, part only; not given: anti-CD3 scFv, linker, TCR constants, part only) TCR alpha, part: GDAKTTQPNSMESNEEEPVHLPCNHSTISGTDYIHWYRQLPSQGPEYVIHGLTSNVNNRMASLAIAEDRKSSTLILHRATLRDAAVYYCILILGHSRLGNYIATFGKGTKLSVIP TCR beta, part: DGGITQSPKYLFRKEGQNVTLSCEQNLNHDAMYWYRQDPGQGLRLIYYSQIMGDEQKGDIAEGYSVSREKKESFPLTVTSAQKNPTAFYLCASSWWTGGSAPISFGPGTRLTVT | 23.6 | 0.0577 | 16.9
3 | ImmTAC molecule comprising a79 (SEQ ID NO: 7) and b66 (SEQ ID NO: 23) (TCR, part only; not given: anti-CD3 scFv, linker, TCR constants, part only) TCR alpha, part: GDAKTTQPNSMESNEEEPVHLPCNHSTISGTDYIHWYRQLPSQGPEYVIHGLTSNVNNRMASLAIAEDRKSSTLILHRATLRDAAVYYCILILGHSRLGNYIATFGKGTKLSVIP TCR beta, part: DGGITQSPKYLFRKEGQNVTLSCEQNLNHDAMYWYRQDPGQGLRLIYYSQIMGDEQKGDIAEGYSVSREKKESFPLTVTSAQKNPTAFYLCASSPWTGGSAPIRFGPGTRLTVT | 16.7 | 0.089 | 9.16
4 | ImmTAC molecule comprising a79 (SEQ ID NO: 7) and b63 (SEQ ID NO: 22) (TCR, part only; not given: anti-CD3 scFv, linker, TCR constants, part only) TCR alpha, part: GDAKTTQPNSMESNEEEPVHLPCNHSTISGTDYIHWYRQLPSQGPEYVIHGLTSNVNNRMASLAIAEDRKSSTLILHRATLRDAAVYYCILILGHSRLGNYIATFGKGTKLSVIP TCR beta, part: DGGITQSPKYLFRKEGQNVTLSCEQNLNHDAMYWYRQDPGQGLRLIYYSQIVGDEQKGDIAEGYSVSREKKESFPLTVTSAQKNPTAFYLCASSWWTGGSAPIRFGPGTRLTVT | 22.9 | 0.079 | 10.8
5 | ImmTAC molecule comprising a28 (SEQ ID NO: 6) and b58 (SEQ ID NO: 21) (TCR, part only; not given: anti-CD3 scFv, linker, TCR constants, part only) TCR alpha, part: GDAKTTQPNSMESNEEEPVHLPCNHSTISGTDYIHWYRQLPSQGPEYVIHGLTSNVNNRMASLAIAEDRKSSTLILHRATLRDAAVYYCILILGHSRAGNYIATFGKGTKLSVIP TCR beta, part: DGGITQSPKYLFRKEGQNVTLSCEQNLNHDAMYWYRQDPGQGLRLIYYSQIMGDEQKGDIAEGYSVSREKKESFPLTVTSAQKNPTAFYLCASSWWTGGSSPISFGPGTRLTVT | 12 | 0.079 | 8.9
6 | ImmTAC molecule comprising a28 (SEQ ID NO: 6) and b74 (SEQ ID NO: 17) (TCR, part only; not given: anti-CD3 scFv, linker, TCR constants, part only) TCR alpha, part: GDAKTTQPNSMESNEEEPVHLPCNHSTISGTDYIHWYRQLPSQGPEYVIHGLTSNVNNRMASLAIAEDRKSSTLILHRATLRDAAVYYCILILGHSRAGNYIATFGKGTKLSVIP TCR beta, part: DGGITQSPKYLFRKEGQNVTLSCEQNLNHDAMYWYRQDPGQGLRLIYYSQIMGDEQKGDIAEGYSVSREKKESFPLTVTSAQKNPTAFYLCASSWWTGGASPIRFGPGTRLTVT | 24.3 | 0.182 | 3.7
7 | ImmTAC molecule comprising a28 (SEQ ID NO: 6) and b57 (SEQ ID NO: 10) (TCR, part only; not given: anti-CD3 scFv, linker, TCR constants, part only) TCR alpha, part: GDAKTTQPNSMESNEEEPVHLPCNHSTISGTDYIHWYRQLPSQGPEYVIHGLTSNVNNRMASLAIAEDRKSSTLILHRATLRDAAVYYCILILGHSRAGNYIATFGKGTKLSVIP TCR beta, part: DGGITQSPKYLFRKEGQNVTLSCEQNLNHDAMYWYRQDPGQGLRLIYYSQIMGDEQKGDIAEGYSVSREKKESFPLTVTSAQKNPTAFYLCASSWWTSGASPISFGPGTRLTVT | 13.4 | 0.083 | 8.3
8 | ImmTAC molecule comprising a109 (SEQ ID NO: 8) and b46 (SEQ ID NO: 11) (TCR, part only; not given: anti-CD3 scFv, linker, TCR constants, part only) TCR alpha, part: GDAKTTQPNSMESNEEEPVHLPCNHSTISGTDYIHWYRQLPSQGPEYVIHGLTSNVNNRMASLAIAEDRKSSTLILHRATLRDAAVYYCILILGHSRLGNYQATFGKGTKLSVIP TCR beta, part: DGGITQSPKYLFRKEGQNVTLSCEQNLNHDAMYWYRQDPGQGLRLIYYSQIMGDEQKGDIAEGYSVSREKKESFPLTVTSAQKNPTAFYLCASSWWTGGSAPIRFGPGTRLTVT | 60.1 | 0.17 | 7.31
9 | ImmTAC molecule comprising a79 (SEQ ID NO: 7) and b69 (SEQ ID NO: 14) (TCR, part only; not given: anti-CD3 scFv, linker, TCR constants, part only) TCR alpha, part: GDAKTTQPNSMESNEEEPVHLPCNHSTISGTDYIHWYRQLPSQGPEYVIHGLTSNVNNRMASLAIAEDRKSSTLILHRATLRDAAVYYCILILGHSRLGNYIATFGKGTKLSVIP TCR beta, part: DGGITQSPKYLFRKEGQNVTLSCEQNLNHDAMYWYRQDPGQGLRLIYYSQIMGDEQKGDIAEGYSVSREKKESFPLTVTSAQKNPTAFYLCASSWWTGGSAEIRFGPGTRLTVT | 39.8 | 0.052 | 20.4
10 | ImmTAC molecule comprising a79 (SEQ ID NO: 7) and b58 (SEQ ID NO: 21) (TCR, part only; not given: anti-CD3 scFv, linker, TCR constants, part only) TCR alpha, part: GDAKTTQPNSMESNEEEPVHLPCNHSTISGTDYIHWYRQLPSQGPEYVIHGLTSNVNNRMASLAIAEDRKSSTLILHRATLRDAAVYYCILILGHSRLGNYIATFGKGTKLSVIP TCR beta, part: DGGITQSPKYLFRKEGQNVTLSCEQNLNHDAMYWYRQDPGQGLRLIYYSQIMGDEQKGDIAEGYSVSREKKESFPLTVTSAQKNPTAFYLCASSWWTGGSSPISFGPGTRLTVT | 10.6 | 0.0231 | 28.7
11 | ImmTAC molecule comprising a79 (SEQ ID NO: 7) and b77 (SEQ ID NO: 18) (TCR, part only; not given: anti-CD3 scFv, linker, TCR constants, part only) TCR alpha, part: GDAKTTQPNSMESNEEEPVHLPCNHSTISGTDYIHWYRQLPSQGPEYVIHGLTSNVNNRMASLAIAEDRKSSTLILHRATLRDAAVYYCILILGHSRLGNYIATFGKGTKLSVIP TCR beta, part: DGGITQSPKYLFRKEGQNVTLSCEQNLNHDAMYWYRQDPGQGLRLIYYSQIMGDEQKGDIAEGYSVSREKKESFPLTVTSAQKNPTAFYLCASSWWTGGAAPIRFGPGTRLTVT | 13.8 | 0.0779 | 8.6
12 | ImmTAC molecule comprising a79 (SEQ ID NO: 7) and b76 (SEQ ID NO: 24) (TCR, part only; not given: anti-CD3 scFv, linker, TCR constants, part only) TCR alpha, part: GDAKTTQPNSMESNEEEPVHLPCNHSTISGTDYIHWYRQLPSQGPEYVIHGLTSNVNNRMASLAIAEDRKSSTLILHRATLRDAAVYYCILILGHSRLGNYIATFGKGTKLSVIP TCR beta, part: DGGITQSPKYLFRKEGQNVTLSCEQNLNHDAMYWYRQDPGQGLRLIYYSQIMGDEQKGDIAEGYSVSREKKESFPLTVTSAQKNPTAFYLCASSWWTGGSSPIRFGPGTRLTVT | 17.2 | 0.0118 | 58.3
13 | ImmTAC molecule comprising a28 (SEQ ID NO: 6) and b60 (SEQ ID NO: 19) (TCR, part only; not given: anti-CD3 scFv, linker, TCR constants, part only) TCR alpha, part: GDAKTTQPNSMESNEEEPVHLPCNHSTISGTDYIHWYRQLPSQGPEYVIHGLTSNVNNRMASLAIAEDRKSSTLILHRATLRDAAVYYCILILGHSRAGNYIATFGKGTKLSVIP TCR beta, part: DGGITQSPKYLFRKEGQNVTLSCEQNLNHDAMYWYRQDPGQGLRLIYYSQIMGDEQKGDIAEGYSVSREKKESFPLTVTSAQKNPTAFYLCASSWWTGGASEISFGPGTRLTVT | 31.7 | 0.261 | 2.8
14 | ImmTAC molecule comprising a79 (SEQ ID NO: 7) and b67 (SEQ ID NO: 13) (TCR, part only; not given: anti-CD3 scFv, linker, TCR constants, part only) TCR alpha, part: GDAKTTQPNSMESNEEEPVHLPCNHSTISGTDYIHWYRQLPSQGPEYVIHGLTSNVNNRMASLAIAEDRKSSTLILHRATLRDAAVYYCILILGHSRLGNYIATFGKGTKLSVIP TCR beta, part: DGGITQSPKYLFRKEGQNVTLSCEQNLNHDAMYWYRQDPGQGLRLIYYSQIMGDEQKGDIAEGYSVSREKKESFPLTVTSAQKNPTAFYLCASSWWTSGSAPIRFGPGTRLTVT | 26.3 | 0.047 | 12.7
15 | ImmTAC molecule comprising a28 (SEQ ID NO: 6) and b75 (SEQ ID NO: 20) (TCR, part only; not given: anti-CD3 scFv, linker, TCR constants, part only) TCR alpha, part: GDAKTTQPNSMESNEEEPVHLPCNHSTISGTDYIHWYRQLPSQGPEYVIHGLTSNVNNRMASLAIAEDRKSSTLILHRATLRDAAVYYCILILGHSRAGNYIATFGKGTKLSVIP TCR beta, part: DGGITQSPKYLFRKEGQNVTLSCEQNLNHDAMYWYRQDPGQGLRLIYYSQIMGDEQKGDIAEGYSVSREKKESFPLTVTSAQKNPTAFYLCASSWWTGGSAPISFGPGTRLTVT | 13.9 | 0.214 | 5.1
16 | ImmTAC molecule comprising a79 (SEQ ID NO: 7) and b71 (SEQ ID NO: 15) (TCR, part only; not given: anti-CD3 scFv, linker, TCR constants, part only) TCR alpha, part: GDAKTTQPNSMESNEEEPVHLPCNHSTISGTDYIHWYRQLPSQGPEYVIHGLTSNVNNRMASLAIAEDRKSSTLILHRATLRDAAVYYCILILGHSRLGNYIATFGKGTKLSVIP TCR beta, part: DGGITQSPKYLFRKEGQNVTLSCEQNLNHDAMYWYRQDPGQGLRLIYYSQIMGDEQKGDIAEGYSVSREKKESFPLTVTSAQKNPTAFYLCASSWWTGGSAPIYFGPGTRLTVT | 31.8 | 0.087 | 14.9
17 | ImmTAC molecule comprising a79 (SEQ ID NO: 7) and b73 (SEQ ID NO: 16) (TCR, part only; not given: anti-CD3 scFv, linker, TCR constants, part only) TCR alpha, part: GDAKTTQPNSMESNEEEPVHLPCNHSTISGTDYIHWYRQLPSQGPEYVIHGLTSNVNNRMASLAIAEDRKSSTLILHRATLRDAAVYYCILILGHSRLGNYIATFGKGTKLSVIP TCR beta, part: DGGITQSPKYLFRKEGQNVTLSCEQNLNHDAMYWYRQDPGQGLRLIYYSQIMGDEQKGDIAEGYSVSREKKESFPLTVTSAQKNPTAFYLCASSWWTGGAAPISFGPGTRLTVT | 23.1 | 0.132 | 4.6
